Amyloid nucleation score data for 104 substances are collected here from the supplement of paper PMC12042874.

± gives the uncertainty stated by the source.

This data set is described as follows: amyloid nucleation score (Sup35N fusion, yeast selection) (log enrichment); library NNK1; higher = more nucleation; inactive = no reads after selection. In a few lines: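 The nucleation score equals the log enrichment of output over input reads from DiMSum, centred on the mode score of non-aggregating sequences. It was computed only for sequences with 100 or more input reads. The reads came from Illumina sequencing of plasmid inserts from psi-negative yeast expressing Sup35N fused to peptides of 20 random codons, induced with 100 μM copper sulfate for 24 hours and grown 7 days at 30°C without adenine and uracil.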
In the case of TKIKYGDKSPKHYYMAS, the amyloid nucleation score was -0.174 ± 0.6.
In the case of TKLVLWLVA, the amyloid nucleation score was -0.429 ± 0.71.
On to TKSMFGTCNMFKTKVLN, for which the amyloid nucleation score is -0.101 ± 0.49.
For the substance TKSRRSEGCEMPCHCNEVFV, the amyloid nucleation score was 0.497 ± 0.72.
For the substance TKSTLL, the amyloid nucleation score was -0.296 ± 0.64.
Take TLCCLT: the amyloid nucleation score entry was “inactive”.
Consider TLCCVWSNSFLRVTHDVYKA, for which the amyloid nucleation score came to 8.518 ± 0.057.
For TLDADYPCNEQDTVWL, the amyloid nucleation score amounted to 1.01 ± 1.1.
Substance TLFCSGSNAKAGCSEHYYFC returned an amyloid nucleation score of 3.04 ± 0.16.
As to TLFLVWILGVTKSRITGTPS, the amyloid nucleation score is 0.325 ± 0.73.
Turning to TLIGSDLVFGSRDPGWGCTI, the amyloid nucleation score was -0.406 ± 0.45.
In the case of TLKFGSYQAVRLSHSGKPDD it was 2.55 ± 0.1.
With TLLRLFEKPLICYVIGRSLI, the amyloid nucleation score is -1.09 ± 0.61.
Consider TLNHRSLCFSSVDILWVWII, for which the amyloid nucleation score is -0.533 ± 0.9.
Next, TLSGFYPMYHHLCHECVLKP: 1.13 ± 0.37; TLSTRTIHSCSEYYSGMCVL: 0.089 ± 0.93.
As to TLTCFLIYHTWTR, the amyloid nucleation score was -1.34 ± 1.4.
In the case of TLVTEESWMSLLSVNIAQ it was -0.378 ± 0.59; in that of TLYHSI, -0.385 ± 0.56; in that of TMGLSLYGV, -0.174 ± 0.51.
In the case of TMIWFQLRTTLLNYQATVFL it was “inactive”; in that of TMIWLVAPPPLLAMVLY, 0.392 ± 0.6; in that of TMKVGYQGICYTETSGMSFV, “inactive”.
Next, TMLWIVIARNFECEMGFNM: 3.1 ± 0.08; TMSHCVRRCGVMGGVVAFKG: -0.031 ± 0.38.
TMTSPVGWETSSFRRMDR had an amyloid nucleation score of 0.796 ± 0.52.
In the case of TMVFVCSNYGPSFSLLVC it was 2.83 ± 0.24; in that of TMYVALFLFLA, 2.54 ± 0.29.
Next, TNDTAPVWHTDLMTDWR: -0.079 ± 0.57; TNFRRSCYVDGVC: “inactive”.
In the case of TNGNGFIRRFTRAYFFT it was -0.338 ± 0.5; in that of TNISQGRCKVECLPITSIYG, 0.247 ± 0.75; in that of TNISSTGFAIYWLCN, 7.16 ± 0.049.
For the substance TNITNLSSFVMDDTGWSVNE, the amyloid nucleation score result is “inactive”.
In turn, TPANNVRISFIWFL had an amyloid nucleation score of 3.54 ± 0.064.
TPGVKPYYWIRLTEIVATHS yielded an amyloid nucleation score of 0.52 ± 1.2.
Next, TPRCLGERTISGISFYKV: -1.04 ± 0.55; TPSSAFFDAMLNLQQVQSKC: “inactive”.
As to TPYYPSQKQCRMPRGACVL, the amyloid nucleation score is -0.435 ± 0.48.
TQDEMVSVRNKLSCVTLE yielded an amyloid nucleation score of 4.04 ± 0.06.
On to TQEKMSVGYYASNSLFWSML, for which the amyloid nucleation score is 0.36 ± 1.2.
In the case of TQRTAFRGR it was 0.203 ± 0.75.
In the case of TRAAYLGRGREMRCIKVAFW it was 1.31 ± 0.93.
In the case of TRCCLFDRSSIYPSYCNEEA it was -0.123 ± 0.9; in that of TRGVGYFIREIFGS, 0.241 ± 1.4; in that of TRHCMRLWECKHEMRTAN, -0.647 ± 1.1.
In turn, TRHFLSIVLLEL displayed an amyloid nucleation score of 1.78 ± 0.28.
Next, TRRDNVPQHNLGVTLLMVRE: -1.29 ± 2.7; TRTLLNVHCCPSVW: 6.614 ± 0.054; TRYMICSL: 0.121 ± 0.6.
In the case of TSACFFFRCCCLRS it was 3.76 ± 0.15; in that of TSDFVVPM, 0.691 ± 0.41; in that of TSDNFCQCHCSFFQSWFGG, -0.27 ± 0.63.
Next, TSDRVVPFGSISWKGCSRVR: -0.981 ± 0.85; TSENLNSASNLSSYVADMPI: 0.273 ± 0.35; TSFLV: -0.028 ± 0.91.
Regarding TSGSGINITL, the amyloid nucleation score entry was “inactive”.
Next, TSKDEFKFEYRNEKVNQ: 1.75 ± 0.21; TSPDCKAAKSQGSKCRDRSC: -0.495 ± 0.62; TSPYDSNGLFAMLAELHFYS: 0.082 ± 0.78.
In the case of TSRFSFCGS it was 1.85 ± 0.14.
In the case of TSSVEVNPERVITISGTVS, the amyloid nucleation score is -0.018 ± 0.17.
In the case of TSVLLQHGLWIGS it was 0.685 ± 0.34; in that of TSWRAWVGAVKRSAFFYTYY, 0.444 ± 1.4; in that of TSWVEAPSVSSFGWFLSVHL, 1.91 ± 0.12.
Consider TTCCINSLMCTDTNSCIAGV, for which the amyloid nucleation score is 2.08 ± 0.6.
Next, TTCLTQNLDQGSLLYKVLPR: 1.43 ± 0.18; TTDPVWFSAI: 0.346 ± 0.4.
Next, TTDSVDDTRKYAYGFIACGV: 0.114 ± 0.47; TTFGRPSTPH: -0.393 ± 0.38.
Turning to TTLKGCSIY, the amyloid nucleation score came out at 0.934 ± 0.41.
Next, TTLVQCQFIPTFCVIPMWLL: 5.58 ± 0.058.
TTPEAFNSLFAIRGGLLPQR: the amyloid nucleation score is -0.415 ± 0.47.
With TTRHSNQSIM, the amyloid nucleation score came out at 0.344 ± 0.4.
Take TTWER: the amyloid nucleation score was determined as 0.496 ± 1.2.
Next, TTYYRFNVDKTFSAVISAEF: -1.02 ± 2.4.
TVFIKLKVFAMN displayed an amyloid nucleation score of 1.53 ± 0.18.
For TVFWRYCSRVLNDKFGQFWV, the amyloid nucleation score is 0.043 ± 0.35.
Next, TVGMRYFVWVKGSKTKREER: 0.674 ± 1.2; TVISV: -1.47 ± 0.5; TVRGCRCLAFPWFNG: 0.5 ± 0.48.
Next, TVSIPKPILFCEFYFRYADM: -1.67 ± 0.73; TVSMDVLYMIGGCLLCVV: 0.209 ± 0.41; TVVIDSFLCRLQNGVDLGS: “inactive”.
Next, TVVYDWFG: -0.078 ± 0.75; TVWTGQRRMRVSTGCLWSGG: “inactive”; TVWYITTLAGEFAA: 1.09 ± 0.53.
TVWYYSHPS displayed an amyloid nucleation score of 0.34 ± 0.48.
TVYGGLWAFSKTICCVSPKR returned an amyloid nucleation score of 7.228 ± 0.056.
On to TVYMGTLCHYYSGIRLGSIL, for which the amyloid nucleation score was determined as 0.458 ± 0.4.
In the case of TVYSLYVIDALGFLCTNVML, the amyloid nucleation score came to 0.349 ± 0.62.
Substance TWAHMQYDVWPDPTAEKDQV had an amyloid nucleation score of 0.158 ± 0.34.
Next, TWARRFYATRVTTCLNQRVL: 0.416 ± 0.81.
TWMNASCKSCTYAARFSDQK came in with an amyloid nucleation score of 1.51 ± 0.56.
Next, TWQSLHGTVTRPRAIVFRLC: 0.027 ± 0.66; TWRCQLIYTCGNVSRKPVLL: -0.148 ± 0.5; TWSLLNIVYMSN: 0.867 ± 0.39.
In the case of TWSSGRETSCVLFWVQVSKL it was -0.101 ± 0.33.
In the case of TWVVTHPPTM it was 0.359 ± 0.55; in that of TYLRPWPFTVLLIWRRYSCL, 0.244 ± 0.81; in that of TYPMATIIVALG, -0.681 ± 0.38.
Consider TYPYMCNHFLVLELNVIVAL, for which the amyloid nucleation score is 0.363 ± 0.58.
In the case of TYPYRPLHSPFTNRFLSPNG it was -0.926 ± 0.73.
On to TYRCR, for which the amyloid nucleation score was found to be 0.624 ± 0.53.
